Test results taken from US6416738B1, “Pretargeting methods and compounds” (NeoRx Corporation, priority 1973, dated 2002).

How the values were obtained:
NR-LU-10 antigen = target: T1, NR-LU-10 antigen (Homo sapiens, UniProt P16422); assay: NR-LU-10 tumor tissue reactivity (Table A); format: binding
T1 construct: Positive NR-LU-10 tissue reactivity indicates NR-LU-10 antigen expression by such tissues; from tissue; host or cells: carcinoma and normal tissue specimens
T1 sequence (P16422 24-314): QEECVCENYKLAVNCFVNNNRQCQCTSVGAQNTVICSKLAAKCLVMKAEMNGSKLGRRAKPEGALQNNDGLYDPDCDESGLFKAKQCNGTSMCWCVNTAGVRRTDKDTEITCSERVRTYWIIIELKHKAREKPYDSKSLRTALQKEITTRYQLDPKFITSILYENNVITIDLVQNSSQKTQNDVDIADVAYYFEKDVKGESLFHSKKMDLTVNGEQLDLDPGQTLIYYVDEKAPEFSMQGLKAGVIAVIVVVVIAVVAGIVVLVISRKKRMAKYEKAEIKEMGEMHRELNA
Description: Radioimmunoassays, immunoprecipitation and Fluorescence-Activated Cell Sorter (FACS) analysis were used to obtain reactivity profiles of NR-LU-10. The NR-LU-10 target antigen was present on either fixed cultured cells or in detergent extracts of various types of cancer cells. For example, the NR-LU-10 antigen is found in small cell lung, non-small cell lung, colon, breast, renal, ovarian, pancreatic, and other carcinoma tissues. Tumor reactivity of the NR-LU-10 antibody is set forth in Table A, while NR-LU-10 reactivity with normal tissues is set forth in Table B. The values in Table B are obtained as described below. Positive NR-LU-10 tissue reactivity indicates NR-LU-10 antigen expression by such tissues.

[1] = Human clinical trials of NR-LU-10; format: in vivo; conditions: over 565 patients
Method: The hybridoma secreting NR-LU-10 was developed by fusing mouse splenocytes immunized with intact cells of a human small cell lung carcinoma with P3×63/Ag8UI murine myeloma cells. After establishing a seed lot, the hybridoma was grown via in vitro cell culture methods, purified and verified for purity and sterility.

B1: NR-LU-10: 150 kilodalton IgG2b monoclonal antibody recognizing an approximately 40 kilodalton glycoprotein antigen expressed on most carcinomas (antibody, V domains shown)
VH: EVQLQQSGAELVKPGASVRLSCTASGFNIKDTYMHWVIERPEQGLEWIGRIDPANGNTKCDPKFQGKATITADTSSNTAYLQLSSLTSEDTAVYYCSREVLTGTWSLDYWGQGTSVTVSS
VL: DIQMIQSPSSMFASLGDRVSLSCRASQGIRGNLDWYQQKPGGTIKLLIYSTSNLNSGVPSRFSGSGSGSDYSLTISSLDSEDFADYYCLQRNAYPYTFGGGTKLEIK
NR-LU-10 antigen; Breast Adenocarcinoma
  # Pos/Exam: 23/23
  Intensity Avg. (rated 0-3): 2.9
  Percent Avg. (cells stained): 97%
  Uniformity Avg. (rated 0-3): 2.8
NR-LU-10 antigen; Colon Carcinoma
  # Pos/Exam: 12/12
  Intensity Avg. (rated 0-3): 2.9
  Percent Avg. (cells stained): 98%
  Uniformity Avg. (rated 0-3): 2.9
NR-LU-10 antigen; Liposarcoma
  # Pos/Exam: 0/2
  Intensity Avg. (rated 0-3): 0
  Percent Avg. (cells stained): 0%
  Uniformity Avg. (rated 0-3): 0
NR-LU-10 antigen; Lung Adenocarcinoma
  # Pos/Exam: 8/8
  Intensity Avg. (rated 0-3): 3
  Percent Avg. (cells stained): 100%
  Uniformity Avg. (rated 0-3): 2.2
NR-LU-10 antigen; Lung Small Cell Carcinoma
  # Pos/Exam: 2/2
  Intensity Avg. (rated 0-3): 3
  Percent Avg. (cells stained): 100%
  Uniformity Avg. (rated 0-3): 2
NR-LU-10 antigen; Lung Squamous Cell Carcinoma
  # Pos/Exam: 8/8
  Intensity Avg. (rated 0-3): 2.3
  Percent Avg. (cells stained): 73%
  Uniformity Avg. (rated 0-3): 1.8
NR-LU-10 antigen; Lymphoma
  # Pos/Exam: 0/2
  Intensity Avg. (rated 0-3): 0
  Percent Avg. (cells stained): 0%
  Uniformity Avg. (rated 0-3): 0
NR-LU-10 antigen; Malignant Melanoma
  # Pos/Exam: 0/11
  Intensity Avg. (rated 0-3): 0
  Percent Avg. (cells stained): 0%
  Uniformity Avg. (rated 0-3): 0
NR-LU-10 antigen; Malignant Melanoma Ocular
  # Pos/Exam: 0/2
  Intensity Avg. (rated 0-3): 0
  Percent Avg. (cells stained): 0%
  Uniformity Avg. (rated 0-3): 0
NR-LU-10 antigen; Osteosarcoma
  # Pos/Exam: 1/1
  Intensity Avg. (rated 0-3): 2
  Percent Avg. (cells stained): 20%
  Uniformity Avg. (rated 0-3): 1
NR-LU-10 antigen; Ovarian Carcinoma
  # Pos/Exam: 35/35
  Intensity Avg. (rated 0-3): 2.9
  Percent Avg. (cells stained): 100%
  Uniformity Avg. (rated 0-3): 2.2
NR-LU-10 antigen; Pancreas Carcinoma
  # Pos/Exam: 6/6
  Intensity Avg. (rated 0-3): 3
  Percent Avg. (cells stained): 100%
  Uniformity Avg. (rated 0-3): 2.3
NR-LU-10 antigen; Prostate Carcinoma
  # Pos/Exam: 9/9
  Intensity Avg. (rated 0-3): 2.8
  Percent Avg. (cells stained): 95%
  Uniformity Avg. (rated 0-3): 2
NR-LU-10 antigen; Renal Carcinoma
  # Pos/Exam: 8/9
  Intensity Avg. (rated 0-3): 2.2
  Percent Avg. (cells stained): 83%
  Uniformity Avg. (rated 0-3): 1
NR-LU-10 antigen; Synovial Sarcoma
  # Pos/Exam: 0/1
  Intensity Avg. (rated 0-3): 0
  Percent Avg. (cells stained): 0%
  Uniformity Avg. (rated 0-3): 0
NR-LU-10 antigen; Undifferentiated Carcinoma
  # Pos/Exam: 1/1
  Intensity Avg. (rated 0-3): 2
  Percent Avg. (cells stained): 90%
  Uniformity Avg. (rated 0-3): 2
NR-LU-10 antigen; Uterine Leiomyosarcoma
  # Pos/Exam: 0/1
  Intensity Avg. (rated 0-3): 0
  Percent Avg. (cells stained): 0%
  Uniformity Avg. (rated 0-3): 0
[1]
  safety in human clinical trials: safely administered
